Results: paper PMC6754785 (Nature microbiology, 2019)

Molecular target: T1, NXF1 (residues 117–619) (human, UniProt Q9UBU9 117-619)
T1 sequence: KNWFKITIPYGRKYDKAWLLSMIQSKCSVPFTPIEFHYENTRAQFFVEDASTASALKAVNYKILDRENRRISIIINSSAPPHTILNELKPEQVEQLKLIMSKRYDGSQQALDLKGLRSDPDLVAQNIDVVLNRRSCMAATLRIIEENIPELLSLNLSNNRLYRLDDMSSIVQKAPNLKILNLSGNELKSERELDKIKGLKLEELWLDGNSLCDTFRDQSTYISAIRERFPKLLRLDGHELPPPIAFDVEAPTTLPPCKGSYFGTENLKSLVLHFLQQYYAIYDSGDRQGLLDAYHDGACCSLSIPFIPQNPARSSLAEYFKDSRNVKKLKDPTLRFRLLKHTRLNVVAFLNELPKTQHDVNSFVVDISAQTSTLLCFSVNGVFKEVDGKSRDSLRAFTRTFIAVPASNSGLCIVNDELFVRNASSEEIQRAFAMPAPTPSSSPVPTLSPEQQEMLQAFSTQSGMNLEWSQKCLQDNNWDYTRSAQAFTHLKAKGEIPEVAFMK
Assay: crystal structure

B1: NXT1 (residues 1–140) (natural protein)
chain: MASVDFKTYVDQACRAAEEFVNVYYTTMDKRRRLLSRLYMGTATLVWNGNAVSGQESLSEFFEMLPSSEFQISVVDCQPVHDEATPSQTTVLVVICGSVKFEGNKQRDFNQNFILTAQASPSNTVWKIASDCFRFQDWAS
**Q.** Does B1 bind?
**A.** Result: binds
